Measured values taken from US20230081195A1 (INSTITUTE OF GENETICS AND DEVELOPMENT BIOLOGY CHINESE …, published 2023).

Experiments:
OML4-cYFP = target: T1, OML4-cYFP (rice, UniProt Q64M78 1-1001); assay: bimolecular fluorescence complementation (BiFC), confocal microscopy
T1 construct: Transiently expressed in N. benthamiana leaves; Order of the pieces follows the printed name; also called OML4 fused with the C-terminus of the yellow fluorescent protein; not shown: C-terminus of the yellow fluorescent protein (cYFP, vector pGBW414-cYFP)
T1 sequence: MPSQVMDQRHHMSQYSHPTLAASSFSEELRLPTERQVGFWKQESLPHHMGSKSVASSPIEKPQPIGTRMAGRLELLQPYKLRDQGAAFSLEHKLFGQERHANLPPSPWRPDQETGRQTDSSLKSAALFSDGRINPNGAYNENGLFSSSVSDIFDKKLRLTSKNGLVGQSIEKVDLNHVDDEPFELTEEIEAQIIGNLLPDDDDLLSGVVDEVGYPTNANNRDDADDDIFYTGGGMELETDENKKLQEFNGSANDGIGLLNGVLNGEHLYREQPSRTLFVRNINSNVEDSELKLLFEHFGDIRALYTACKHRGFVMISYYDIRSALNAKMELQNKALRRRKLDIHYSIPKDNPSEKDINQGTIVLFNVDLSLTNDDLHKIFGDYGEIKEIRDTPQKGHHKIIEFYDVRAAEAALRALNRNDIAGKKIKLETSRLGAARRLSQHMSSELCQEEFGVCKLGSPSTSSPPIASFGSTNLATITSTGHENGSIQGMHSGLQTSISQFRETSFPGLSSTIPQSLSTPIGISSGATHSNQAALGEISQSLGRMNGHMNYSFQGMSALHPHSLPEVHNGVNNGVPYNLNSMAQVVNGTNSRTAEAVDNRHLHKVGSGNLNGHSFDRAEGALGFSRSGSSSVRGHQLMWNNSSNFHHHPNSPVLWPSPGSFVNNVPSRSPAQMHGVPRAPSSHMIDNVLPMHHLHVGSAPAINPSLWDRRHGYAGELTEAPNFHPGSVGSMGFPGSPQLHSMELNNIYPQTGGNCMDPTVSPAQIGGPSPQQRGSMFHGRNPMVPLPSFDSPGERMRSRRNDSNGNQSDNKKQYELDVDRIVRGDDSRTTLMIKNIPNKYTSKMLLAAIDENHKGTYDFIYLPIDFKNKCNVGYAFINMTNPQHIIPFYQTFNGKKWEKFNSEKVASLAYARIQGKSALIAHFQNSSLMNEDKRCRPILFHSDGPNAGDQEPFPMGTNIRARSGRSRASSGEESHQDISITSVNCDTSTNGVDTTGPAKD
Protocol: (§1) (A) OML4 interacts with GSK2 in yeast cells. Yeast cells were cultured on SD/-Trp-Leu or SD/-Trp-Leu-His-Ade media. (B) OML4 associates with GSK2 in N. benthamiana. OML4-nLUC and GSK2-cLUC were co-expressed in N. benthamiana leaves. Luciferase activity was observed 48 hours after infiltration. The range of luminescence intensity was scaled by the pseudocolor bar. (C) Bimolecular fluorescence complementation (BiFC) assays shown that OML4 interacts with GSK2 in N. benthamiana. OML4-cYFP was coexpressed with GSK2-nYFP in leaves of N. benthamiana. (D) OML4 binds GSK2 in vitro. GSK2-GST was incubated with OML4-MBP and pulled down by OML4-MBP and detected by immunoblot with anti-GST antibody. IB: immunoblot. (E) Interaction between OML4 and GSK2 in the Co-IP assays. Anti-MYC beads were used to immunoprecipitate GSK2-GFP proteins. Gel blots were probed with anti-MYC or anti-GFP antibody. Bars: 50 μm in C.
(§2) We next verified the interaction between OML4 and GSK2 in plant cells using the firefly luciferase (LUC) complementation imaging assay (FIG. 5B). The OML4-nLUC and GSK2-cLUC were transformed and co-expressed in N. benthamiana leaves. […] We then performed bimolecular fluorescence complementation (BiFC) assay to test the interaction between OML4 and GSK2 in plant cells (FIG. 5C). […]

recombinant OML4 = target: T2, recombinant OML4
T2 chain: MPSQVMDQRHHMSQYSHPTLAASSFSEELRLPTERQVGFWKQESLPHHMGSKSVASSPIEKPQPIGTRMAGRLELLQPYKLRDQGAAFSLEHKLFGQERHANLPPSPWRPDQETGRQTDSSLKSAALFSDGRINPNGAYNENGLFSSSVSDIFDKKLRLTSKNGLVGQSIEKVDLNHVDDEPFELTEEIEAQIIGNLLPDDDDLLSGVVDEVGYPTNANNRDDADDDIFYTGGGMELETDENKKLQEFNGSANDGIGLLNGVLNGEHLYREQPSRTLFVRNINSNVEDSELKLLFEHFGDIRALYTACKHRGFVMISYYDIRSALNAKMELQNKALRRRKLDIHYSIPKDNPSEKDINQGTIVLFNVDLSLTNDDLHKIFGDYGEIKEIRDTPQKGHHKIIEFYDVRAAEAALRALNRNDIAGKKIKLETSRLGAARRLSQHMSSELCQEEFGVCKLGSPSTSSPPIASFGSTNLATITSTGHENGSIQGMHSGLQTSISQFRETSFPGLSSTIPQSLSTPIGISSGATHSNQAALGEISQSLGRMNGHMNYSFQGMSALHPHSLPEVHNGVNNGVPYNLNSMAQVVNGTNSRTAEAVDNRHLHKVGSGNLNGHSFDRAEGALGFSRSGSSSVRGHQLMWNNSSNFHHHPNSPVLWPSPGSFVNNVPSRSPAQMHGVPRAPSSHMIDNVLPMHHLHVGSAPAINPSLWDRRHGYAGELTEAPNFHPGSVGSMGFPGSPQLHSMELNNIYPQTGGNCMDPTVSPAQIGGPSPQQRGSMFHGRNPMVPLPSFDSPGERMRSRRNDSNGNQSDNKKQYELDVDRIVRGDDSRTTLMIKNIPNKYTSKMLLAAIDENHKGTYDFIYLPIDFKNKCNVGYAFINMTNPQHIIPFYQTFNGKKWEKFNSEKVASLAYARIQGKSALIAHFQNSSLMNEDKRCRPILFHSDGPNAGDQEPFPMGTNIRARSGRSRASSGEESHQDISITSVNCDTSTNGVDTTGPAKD

OML4-nLUC = target: T3, OML4-nLUC (rice; firefly, UniProt Q64M78 1-1001); assay: firefly luciferase complementation imaging, co-expression in N. benthamiana leaves
T3 construct: Co-expressed in N. benthamiana leaves; Order of the pieces follows the printed name; not shown: N-terminal fragment of firefly luciferase (nLUC)
T3 sequence: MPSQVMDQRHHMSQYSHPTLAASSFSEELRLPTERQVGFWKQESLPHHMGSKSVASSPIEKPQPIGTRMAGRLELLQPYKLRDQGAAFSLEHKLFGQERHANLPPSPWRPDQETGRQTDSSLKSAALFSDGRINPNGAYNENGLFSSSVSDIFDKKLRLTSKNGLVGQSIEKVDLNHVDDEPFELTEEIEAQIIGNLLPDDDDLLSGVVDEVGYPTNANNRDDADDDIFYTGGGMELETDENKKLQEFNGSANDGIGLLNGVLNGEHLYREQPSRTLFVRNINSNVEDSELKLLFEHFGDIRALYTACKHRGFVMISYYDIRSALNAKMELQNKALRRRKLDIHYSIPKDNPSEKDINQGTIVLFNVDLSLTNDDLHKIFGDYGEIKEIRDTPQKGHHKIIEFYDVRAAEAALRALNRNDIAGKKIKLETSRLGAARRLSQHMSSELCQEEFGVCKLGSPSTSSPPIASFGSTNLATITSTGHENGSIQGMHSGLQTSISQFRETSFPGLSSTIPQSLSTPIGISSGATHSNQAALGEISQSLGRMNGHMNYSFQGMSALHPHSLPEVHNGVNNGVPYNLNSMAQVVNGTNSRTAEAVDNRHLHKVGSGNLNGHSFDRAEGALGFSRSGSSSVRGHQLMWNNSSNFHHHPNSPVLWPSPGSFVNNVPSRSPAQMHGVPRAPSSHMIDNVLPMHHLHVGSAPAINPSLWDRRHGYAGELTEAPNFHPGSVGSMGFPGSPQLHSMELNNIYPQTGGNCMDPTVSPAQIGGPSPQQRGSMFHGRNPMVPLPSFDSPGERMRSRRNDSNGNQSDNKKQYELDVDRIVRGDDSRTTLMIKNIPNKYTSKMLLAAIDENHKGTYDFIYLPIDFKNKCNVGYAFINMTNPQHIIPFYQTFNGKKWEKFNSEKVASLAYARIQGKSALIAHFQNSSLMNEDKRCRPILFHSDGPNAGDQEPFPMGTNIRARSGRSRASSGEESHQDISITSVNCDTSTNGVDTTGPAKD
Protocol: as §1, §2

B1: GSK2-nYFP (enzyme)
chain: MDQPAPAPEPMLLDAQPPAAVACDKKQQEGEAPYAEGNDAVTGHIISTTIGGKNGEPKRTISYMAERVVGTGSFGIVFQAKCLETGETVAIKKVLQDRRYKNRELQLMRAMDHPNVISLKHCFFSTTSRDELFLNLVMEYVPETLYRVLKHYSNANHRMPLIYVKLYMYQLFRGLAYIHTVPGVCHRDVKPQNVLVDPLTHQVKLCDFGSAKTLVPGEPNISYICSRYYRAPELIFGATEYTTSIDIWSAGCVLAELLLGQPLFPGESAVDQLVEIIKVLGTPTREEIRCMNPNYTEFRFPQIKAHPWHKVFHKRMPPEAIDLASRLLQYSPSLRCTALDACAHPFFDELREPNARLPNGRPFPPLFNFKHELANSSQELISRLIPEHVRRQATHNFFNTGS
notes: Transiently expressed in N. benthamiana leaves; Order of the pieces follows the printed name; also called GSK2 fused with the N-terminus of the yellow fluorescent protein; not shown: N-terminus of the yellow fluorescent protein (nYFP, vector pGBW414-nYFP)
binding result (OML4-cYFP): binds

B2: recombinant GSK2 (protein)
chain: MDQPAPAPEPMLLDAQPPAAVACDKKQQEGEAPYAEGNDAVTGHIISTTIGGKNGEPKRTISYMAERVVGTGSFGIVFQAKCLETGETVAIKKVLQDRRYKNRELQLMRAMDHPNVISLKHCFFSTTSRDELFLNLVMEYVPETLYRVLKHYSNANHRMPLIYVKLYMYQLFRGLAYIHTVPGVCHRDVKPQNVLVDPLTHQVKLCDFGSAKTLVPGEPNISYICSRYYRAPELIFGATEYTTSIDIWSAGCVLAELLLGQPLFPGESAVDQLVEIIKVLGTPTREEIRCMNPNYTEFRFPQIKAHPWHKVFHKRMPPEAIDLASRLLQYSPSLRCTALDACAHPFFDELREPNARLPNGRPFPPLFNFKHELANSSQELISRLIPEHVRRQATHNFFNTGS
phosphopeptides of OML4 found by LC-MS/MS after in vitro kinase reaction (recombinant OML4): We identified 18 phosphopeptides of OML4, which correspond to 14 phosphosites
phosphosites of OML4 found by LC-MS/MS after in vitro kinase reaction (recombinant OML4): We identified 18 phosphopeptides of OML4, which correspond to 14 phosphosites

B3: cLUC (other, firefly, UniProt P08659 398-550, looked up)
chain: MSGYVNNPEATNALIDKDGWLHSGDIAYWDEDEHFFIVDRLKSLIKYKGYQVAPAELESILLQHPNIFDAGVAGLPDDDAGELPAAVVVLEHGKTMTEKEIVDYVASQVTTAKKLRGGVVFVDEVPKGLTGKLDARKIREILIKAKKGGKSKL
notes: Control of the luciferase complementation imaging assay
binding result (OML4-nLUC): no binding
